Experimental data as given in article PMC3170326, “AKAP12 and AKAP5 form higher-order hetero-oligomers” (Journal of Molecular Signaling, 2011).

B1: GFP-tagged AKAP12 (natural protein, human, UniProt Q02952 1-1782, looked up)
chain: MGAGSSTEQRSPEQPPEGSSTPAEPEPSGGGPSAEAAPDTTADPAIAASDPATKLLQKNGQLSTINGVAEQDELSLQEGDLNGQKGALNGQGALNSQEEEEVIVTEVGQRDSEDVSKRDSDKEMATKSAVVHDITDDGQEETPEIIEQIPSSESNLEELTQPTESQANDIGFKKVFKFVGFKFTVKKDKTEKPDTVQLLTVKKDEGEGAAGAGDHKDPSLGAGEAASKESEPKQSTEKPEETLKREQSHAEISPPAESGQAVEECKEEGEEKQEKEPSKSAESPTSPVTSETGSTFKKFFTQGWAGWRKKTSFRKPKEDEVEASEKKKEQEPEKVDTEEDGKAEVASEKLTASEQAHPQEPAESAHEPRLSAEYEKVELPSEEQVSGSQGPSEEKPAPLATEVFDEKIEVHQEEVVAEVHVSTVEERTEEQKTEVEETAGSVPAEELVEMDAEPQEAEPAKELVKLKETCVSGEDPTQGADLSPDEKVLSKPPEGVVSEVEMLSSQERMKVQGSPLKKLFTSTGLKKLSGKKQKGKRGGGDEESGEHTQVPADSPDSQEEQKGESSASSPEEPEEITCLEKGLAEVQQDGEAEEGATSDGEKKREGVTPWASFKKMVTPKKRVRRPSESDKEDELDKVKSATLSSTESTASEMQEEMKGSVEEPKPEEPKRKVDTSVSWEALICVGSSKKRARRGSSSDEEGGPKAMGGDHQKADEAGKDKETGTDGILAGSQEHDPGQGSSSPEQAGSPTEGEGVSTWESFKRLVTPRKKSKSKLEEKSEDSIAGSGVEHSTPDTEPGKEESWVSIKKFIPGRRKKRPDGKQEQAPVEDAGPTGANEDDSDVPAVVPLSEYDAVEREKMEAQQAQKSAEQPEQKAATEVSKELSESQVHMMAAAVADGTRAATIIEERSPSWISASVTEPLEQVEAEAALLTEEVLEREVIAEEEPPTVTEPLPENREARGDTVVSEAELTPEAVTAAETAGPLGAEEGTEASAAEETTEMVSAVSQLTDSPDTTEEATPVQEVEGGVPDIEEQERRTQEVLQAVAEKVKEESQLPGTGGPEDVLQPVQRAEAERPEEQAEASGLKKETDVVLKVDAQEAKTEPFTQGKVVGQTTPESFEKAPQVTESIESSELVTTCQAETLAGVKSQEMVMEQAIPPDSVETPTDSETDGSTPVADFDAPGTTQKDEIVEIHEENEVASGTQSGGTEAEAVPAQKERPPAPSSFVFQEETKEQSKMEDTLEHTDKEVSVETVSILSKTEGTQEADQYADEKTKDVPFFEGLEGSIDTGITVSREKVTEVALKGEGTEEAECKKDDALELQSHAKSPPSPVEREMVVQVEREKTEAEPTHVNEEKLEHETAVTVSEEVSKQLLQTVNVPIIDGAKEVSSLEGSPPPCLGQEEAVCTKIQVQSSEASFTLTAAAEEEKVLGETANILETGETLEPAGAHLVLEEKSSEKNEDFAAHPGEDAVPTGPDCQAKSTPVIVSATTKKGLSSDLEGEKTTSLKWKSDEVDEQVACQEVKVSVAIEDLEPENGILELETKSSKLVQNIIQTAVDQFVRTEETATEMLTSELQTQAHVIKADSQDAGQETEKEGEEPQASAQDETPITSAKEESESTAVGQAHSDISKDMSEASEKTMTVEVEGSTVNDQQLEEVVLPSEEEGGGAGTKSVPEDDGHALLAERIEKSLVEPKEDEKGDDVDDPENQNSALADTDASGGLTKESPDTNGPKQKEKEDAQEVELQEGKVHSESDKAITPQAQEELQKQERESAKSELTES
notes: AKAP12 (gravin), human, full length; also called AKAP12-GFP; full-length AKAP12; source: A431 cells, stably expressing, in lysate

Experiments:
[1] = molecular target: His-tagged AKAP12 (purified, used for steric-exclusion chromatography) (human) (UniProt Q02952); assay: SEC; purified His-tagged AKAP5 or AKAP12 alone on HiPrep Sephacryl S-400 HR 16/60, PBS with 0.01% NaN3; fractions analysed by SDS-PAGE and immunoblot; homo-oligomer size from elution position
[2] = molecular target: T1, HA-tagged full-length AKAP5 (human, UniProt P24588 1-427); assay: co-IP; anti-HA immunoprecipitation from whole-cell lysates of A431 cells co-expressing an HA-tagged and a GFP-tagged AKAP; cells untreated, treated with 10 uM isoproterenol for 10-30 min, or washed free of agonist for 2 h; immunoblot; conditions: partners not purified
T1 construct: AKAP5 (AKAP79), human, full length; pCMV-HA vector; also called HA-AKAP5; source: A431 cells, transiently transfected, in lysate
T1 sequence (P24588 whole entry): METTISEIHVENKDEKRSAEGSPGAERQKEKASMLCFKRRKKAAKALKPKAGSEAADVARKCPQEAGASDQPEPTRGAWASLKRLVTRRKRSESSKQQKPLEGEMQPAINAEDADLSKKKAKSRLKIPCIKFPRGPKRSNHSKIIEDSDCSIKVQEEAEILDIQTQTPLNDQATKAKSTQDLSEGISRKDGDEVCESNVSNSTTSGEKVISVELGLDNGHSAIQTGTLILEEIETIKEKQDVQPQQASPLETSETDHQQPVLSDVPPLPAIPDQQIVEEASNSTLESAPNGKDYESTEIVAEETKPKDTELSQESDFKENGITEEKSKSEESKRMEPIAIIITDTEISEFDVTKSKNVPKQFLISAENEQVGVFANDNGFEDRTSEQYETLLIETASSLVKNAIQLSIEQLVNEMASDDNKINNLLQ

| Molecule | stoichiometry N [1] | fold increase of AKAP12 co-precipitated with AKAP5 after 30 min isoproterenol, over unstimulated cells [2] [fold] |
| --- | --- | --- |
| His-tagged AKAP12 (purified, used for steric-exclusion chromatography) (from UniProt Q02952 1-1782) (natural protein) | 4 | – |
| B1 | – | 4 |
